Laboratory results as given in patent US20250297255A1 (ARSENAL BIOSCIENCES, published 2025).

Molecular target: T1, Human TMPRSS4 (Transmembrane protease, serine 4), wild type full length (human, UniProt Q9NRS4 1-437)
T1 construct: Type II membrane protein over-expressed on HEK293T cells (also endogenous on H1975 and LUDLU-1 cells); also called TMPRSS4 WT; HEK293T-TMPRSS4
Assay: flow cytometry, monoclonal phage on HEK293T-TMPRSS4 cells;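 further: bound phage detected with a PE-labelled mouse anti-M13 monoclonal antibody, read by flow cytometry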
Description: Monoclonal phages were prepared, screened for binding to HEK293T-TMPRSS4 cells by flow cytometry. Monoclonal phage clones were incubated with HEK293T-TMPRSS4 cells, the cells were washed and then incubated with a PE conjugated mouse anti-M13 mAb, and washed again before being analyzed by flow cytometry. The positive candidates were selected based on cytometry results, then followed by next-gen sequencing of the positive hits.

T1 sequence (Q9NRS4 whole entry): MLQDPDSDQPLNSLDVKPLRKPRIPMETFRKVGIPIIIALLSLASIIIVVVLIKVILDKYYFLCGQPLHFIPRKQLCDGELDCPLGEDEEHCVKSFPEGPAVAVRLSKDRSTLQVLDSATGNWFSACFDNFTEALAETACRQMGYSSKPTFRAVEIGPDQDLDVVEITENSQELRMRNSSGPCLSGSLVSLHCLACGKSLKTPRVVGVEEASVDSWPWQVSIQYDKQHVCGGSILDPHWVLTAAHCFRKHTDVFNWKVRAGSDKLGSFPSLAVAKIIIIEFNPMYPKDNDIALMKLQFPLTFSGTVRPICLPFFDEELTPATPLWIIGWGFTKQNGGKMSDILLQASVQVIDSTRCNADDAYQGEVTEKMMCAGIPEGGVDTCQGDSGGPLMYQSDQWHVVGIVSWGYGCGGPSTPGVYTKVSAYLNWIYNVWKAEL

B1: TMPRSS4 Ab7 scFv (VH-VL) (scFv)
scFv: QVQLVQSGAEVKKPGASVKVSCKASGYTFSRYFMHWVRQAPGQGLEWVGWINPNSGNTGYAQKFQGRVTMTRDTSTSTVYMELSSLRSEDTAVYYCARVVTGGRLDVWGQGTTVTVSSGGGGSGGGGSGGGGSEIVMTQSPATLSVSPGERATLSCRASQRVSNNYLAWYQQKPGQAPRLLIYGASTRASGIPARFSGSGSGTEFTLTISSLQSEDFAVYYCQQYGSTPYTFGQGTKVEIK
notes: on monoclonal phage in the screen
binding result: binds

B2: TMPRSS4 Ab6 scFv (VH-VL) (scFv)
scFv: QVQLVQSGAEVKKPGASVKVSCKASGYTFTSYYMHWVRQAPGQGLEWLGIINPSDYTTSYAQKFQGRVTMTRDTSTSTVYMELSSLRSEDTAVYYCARVASSSWYPGDENWYFDLWGRGTLVTVSSGGGGSGSGGGGSGGGGSDIVMTQSPDSLAVSLGERATINCKSSQSVLYSSNNKNYLAWYQQKPGQPPKLLIYWASTRESGVPDRFSGSGSGTDFTLTISSLQAEDVAIYYCQQYYAIPWTFGQGTKVEIK
notes: as for B1
binding result: binds

B3: TMPRSS4 Ab61 scFv (VH-VL) (scFv)
scFv: QVQLVQSGAEVKKPGASVKVSCKASGYTFTNYYMHWVRQAPGQGLEWMGWMNPNSGNTGYAQNLQGRVTMTRDTSTSTVYMELSSLRSEDTAVYYCARGRTWFRSGMDVWGQGTTVTVSSGGGGSGGGGSGGGGSEIVMTQSPATLSVSPGERATLSCRASQSVSSYLAWYQQKPGQAPRLLIYGASTRATGIPARFSGSGSGTEFTLTISSLQSEDFAVYYCQQYDISVTFGPGTKVDIK
notes: as for B1
binding result: binds

B4: TMPRSS4 Ab67 scFv (VH-VL) (scFv)
scFv: QVQLVQSGAEVKKPGSSVKVSCKASGYTFTSYDINWVRQAPGQGLEWMGGIIPIFGTANYAQKFQGRVTITADESTSTAYMELSSLRSEDTAVYYCATTPGDAFDIWGQGTMVTVSSGGGGSGGGGSGGGGSDIVMTQSPDSLAVSLGERATINCKSSQSVLYSSNNKNYLAWYQQKPGQPPKLLIYWASTRESGVPDRFSGSGSGTDFTLTISSLQAEDVAVYYCQQYSDTPLTFGQGTKVEIK
notes: as for B1
binding result: binds

B5: TMPRSS4 Ab49 scFv (VH-VL) (scFv)
scFv: QVQLVQSGAEVKKPGASVKVSCKASGYTFTGYYMHWVRQAPGQGLEWMGRINPNSGGTNYAQKFQGRVTMTRDTSTSTVYMELSSLRSEDTAVYYCARERAGYSSGQFDYWGQGTLVTVSSGGGGSGGGGSGGGGSDIQMTQSPSSLSASVGDRVTITCRASQSISNWLAWYQQKPGKAPKLLIYAASTLQNGVPSRFSGSGSGTDFTLTISSLQPEDFATYYCQQSYTFPITFGQGTKVEIK
notes: as for B1
binding result: binds

B6: TMPRSS4 Ab65 scFv (VH-VL) (scFv)
scFv: QVQLVQSGAEVKKPGASVKVSCKASGYTFTGYYMHWVRQAPGQGLEWMGWMNPNSGNTGYAQKFQGRVTMTRDTSTSTVYMELSSLRSEDTAVYYCAGRKWLGLDFYNWFDPWGQGTLVTVSSGGGGSGGGGSGGGGSDIVMTQSPDSLAVSLGERATINCKSSQSVLYSSNNKNYLAWYQQKPGQPPKLLIYWASTRQSGVPDRFSGSGSGTDFTLTISSLQAEDVAVYYCQQYYSTPWTFGQGTKVEIK
notes: as for B1
binding result: binds

B7: TMPRSS4 Ab64 scFv (VH-VL) (scFv)
scFv: QVQLVQSGAEVKKPGASVKVSCKASGYTFTGYYMHWVRQAPGQGLEWMGMINPSGGGTTYAQKFQGRVTMTRDTSTSTVYMELSSLRSEDTAVYYCARDRRSMITFRTDYWGQGTLVTVSSGGGGSGGGGSGGGGSDIVMTQSPDSLAVSLGERATINCKSSQSVLYSSNNKNYLAWYQQKPGQPPKLLIYWASTRESGVPDRFSGSGSGTDFTLTISSLQAEDVAVYYCQQYYSTPYTFGQGTKLEIK
notes: as for B1
binding result: binds

B8: TMPRSS4 Ab63 scFv (VH-VL) (scFv)
scFv: QVQLVQSGAEVKKPGASVKVSCKASGYTFTGYRMHWVRQAPGQGLEWMGVINPNTGTARFAQKFQGRVTMTRDTSTSTVYMELSSLRSEDTAVYYCASVGVYWYFDLWGRGTLVTVSSGGGGSGGGGSGGGGSDIVMTQSPDSLAVSLGERATINCKSSQSVLYSSNNKNYLAWYQQKPGQPPKLLIYWASTRESGVPDRFSGSGSGTDFTLTISSLQAEDVAVYYCQQYYSAPLTFGGGTKVEIK
notes: as for B1
binding result: binds

B9: TMPRSS4 Ab53 scFv (VH-VL) (scFv)
scFv: QVQLVQSGAEVKKPGASVKVSCKASGYTFTRYYMHWVRQAPGQGLEWMGIINPTGGSTSYAQKFQGRVTMTRDTSTSTVYMELSSLRSEDTAVYYCARGRTWIQSSLGYWGQGTLVTVSSGGGGSGGGGSGGGGSDIQMTQSPSSLSASVGDRVTITCRASRSINRWLAWYQQKPGKAPKLLIYGASTLQSGVPSRFSGSGSGTDFTLTISSLQPEDFATYYCQQSYSTPTFGGGTKVEIK
notes: as for B1
binding result: binds

B10: TMPRSS4 Ab62 scFv (VH-VL) (scFv)
scFv: QVQLVQSGAEVKKPGASVKVSCKASGYTFTDYYIHWVRQAPGQGLEWMGWISTYNGNTNYAQKLQGRVTMTRDTSTSTVYMELSSLRSEDTAVYYCARGMVRGMDVWGQGTMVTVSSGGGGSGGGGSGGGGSDIVMTQSPDSLAVSLGERATINCKSSQSVLYSSNNKNYLAWYQQKPGQPPKLLIYWASTRESGVPDRFSGSGSGTDFTLTISSLQAEDVAVYYCQQYYTTPWTFGQGTRLEIK
notes: as for B1
binding result: binds

B11: TMPRSS4 Ab70 scFv (VH-VL) (scFv)
scFv: EVQLLESGGGLVQPGGSLRLSCAASGFAFSGTWMQWVRQAPGKGLEWVSDISGSSRDTNYADSVKGRFTISRDNSKNTLYLQMNSLRAEDTAVYYCAKDHWDSYGYLDYWGQGTLVTVSSGGGGSGGGGSGGGGSDIQMTQSPSSLSASVGDRVTITCRASQSISGWLAWYQQKPGKAPKLLIYAASTLRDGVPSRFSGSGSGTDFTLTISSLQPEDFATYYCQQANSFPLTFGQGTKVEIK
notes: as for B1
binding result: binds

B12: TMPRSS4 Ab59 scFv (VH-VL) (scFv)
scFv: QVQLVQSGAEVKKPGASVKVSCKASGGTFSSYTLSWVRQAPGQGLEWMGWIHPKSGVTKNAQKFQGRVTMTRDTSTSTVYMELSSLRSEDTAVYYCARGWVYGRMDAWGQGTTVTVSSGGGGSGGGGSGGGGSEIVMTQSPATLSVSPGERATLSCRASQSVSSNYLAWYQQKPGQAPRLLIYGASTRATGIPARFSGSGSGTEFTLTISSLQSEDFAVYYCQQYGTLPYTFGQGTKVEIK
notes: as for B1
binding result: binds

B13: TMPRSS4 Ab5 scFv (VH-VL) (scFv)
scFv: QVQLVQSGAEVKKPGSSVKVSCKASGYTFTSYYMHWVRQAPGQGLEWMGRIIPILGATDYAQKFQGRVTITADESTSTAYMELSSLRSEDTAVYYCARAGYSSIAARPAFWGQGTLVTVSSGGGGSGSGGGGSGGGGSEIVMTQSPATLSVSPGERATLSCRASQSVSSNLAWYQQKPGQAPRLLIYGASTRATGIPARFSGSGSGTEFTLTISSLQSEDFAVYYCQQYYSPFPLTFGGGTKVEIK
notes: as for B1
binding result: binds

B14: TMPRSS4 Ab69 scFv (VH-VL) (scFv)
scFv: EVQLLESGGGLVQHGGSLRLSCAASGFAFSSYVLHWVRQAPGKGLEWVSSISSSSSYIYYADSVKGRFTISRDNSKNTLYLQMNSLRAEDTAVYYCARGDRYPGLPNYWGQGTLVTVSSGGGGSGGGGSGGGGSDIQMTQSPSSLSASVGDRVTITCRASQGISSWLAWYQQKPGKAPKLLIYQASNKDTGVPSRFSGSGSGTDFTLTISSLQPEDFATYYCQQSYRIPWTFGQGTKVEIK
notes: as for B1
binding result: binds

B15: TMPRSS4 Ab60 scFv (VH-VL) (scFv)
scFv: QVQLVQSGAEVKKPGASVKVSCKASGYSFTTYYIHWVRQAPGQGLEWMGIINPSGGSTSYAQKFQGRVTMTRDTSTSTVYMELSSLRSEDTAVYYCARGGYYGSGYNSVGYWGPGTLVTVSSGGGGSGGGGSGGGGSEIVMTQSPATLSVSPGERATLSCRASQSVSSNTLAWYQQKPGQAPRLLIYGASTRATGIPARFSGSGSGTEFTLTISSLQSEDFAVYYCQQYGSSPLTFGPGTKVDIK
notes: as for B1
binding result: binds

B16: TMPRSS4 Ab66 scFv (VH-VL) (scFv)
scFv: QVQLVQSGAEVKKPGSSVKVSCKASGGTFSSYAISWVRQAPGQGLEWVGGIMPIFGTANYAQKFQGRVTITADESPSTAYMELSSLRSEDTAVYYCATGRRELLNWGQGTLVTVSSGGGGSGGGGSGGGGSEIVMTQSPATLSVSPGERATLSCRASQSVNSRFLAWYQQKPGQAPRLLIYGASTRATGIPARFSGSGSGTEFTLTISSLQSEDFAVYYCMQGTHWPYTFGQGTKVEIK
notes: as for B1
binding result: binds

B17: TMPRSS4 Ab52 scFv (VH-VL) (scFv)
scFv: QVQLVQSGAEVKKPGASVKVSCKASGYTFTRYYIHWVRQAPGQGLEWMGWMNPNSGNTGFAQKLQGRVTMTRDTSTSTVYMELSSLRSEDTAVYYCARGPFPRGRLDLWGQGTLVTVSSGGGGSGGGGSGGGGSDIQMTQSPSSLSASVGDRVTITCRASQGISRWLGWYQQKPGKAPKLLIYGASNLQTGVPSRFSGSGSGTDFTLTISSLQPEDFATYYCQQSYSSPRTFGQGTKVEIK
notes: as for B1
binding result: binds

B18: TMPRSS4 Ab71 scFv (VH-VL) (scFv)
scFv: EVQLLESGGGLVQPGGSLRLSCAASGFMFDYYAMHWVRQAPGKGLEWVSLISYDGRNKYYADSVKGRFTISRDNSKNTLYLQMNSLRAEDTAVYYCARPGSYSRFQHWGQGTLVTVSSGGGGSGGGGSGGGGSDIQMTQSPSSLSASVGDRVTITCRASQGISNNLNWYQQKPGKAPKLLIYAASSLQSGVPSRFSGSGSGTDFTLTISSLQPEDFATYYCQQANNFPITFGQGTKVEIK
notes: as for B1
binding result: binds

B19: TMPRSS4 Ab50 scFv (VH-VL) (scFv)
scFv: QVQLVQSGAEVKKPGASVKVSCKASGYTFTGYYMHWVRQAPGQGLEWMGWINPNSGGTHYAQKFQGRVTMTRDTSTSTVYMELSSLRSEDTAVYYCARVRIGWLQSPPLYWGQGTLVTVSSGGGGSGGGGSGGGGSDIQMTQSPSSLSASVGDRVTITCRASQGISNYLAWYQQKPGKAPKLLIYATSRLQSGVPSRFSGSGSGTDFTLTISSLQPEDFATYYCQQSYKTPLTFGGGTKVEIK
notes: as for B1
binding result: binds

B20: TMPRSS4 Ab54 scFv (VH-VL) (scFv)
scFv: QVQLVQSGAEVKKPGASVKVSCKASGYTFTSYYMQWVRQAPGQGLEWMGWMNPNSGNTGYAQKFQGRVTMTRDTSTSTVYMELSSLRSEDTAVYYCARVRIGWLQSPPLYWGQGTLVTVSSGGGGSGGGGSGGGGSDIQMTQSPSSLSASVGDRVTITCRASQGISNYLAWYQQKPGKAPKLLIYAASSLQSGVPSRFSGSGSGTDFTLTISSLQPEDFATYYCQQSYSIPFTFGPGTKVDIK
notes: as for B1
binding result: binds
